From publication PMC5756042, “Molecular Defects of the Disease-Causing Human Arrestin-1 C147F Mutant” (Investigative Ophthalmology & Visual Science, 2018)

The binders below were run against T1, light-activated unphosphorylated rhodopsin (bovine, UniProt P02699 1-348) (assay: radioligand binding; direct binding assay: 1 nM radiolabelled arrestin-1 (50 fmol) with 0.3 μg P-Rh* or Rh* (0.22 μM) in 50 μL of 50 mM Tris-HCl pH 7.4, 100 mM potassium acetate, 1 mM EDTA, 1 mM dithiothreitol, 5 minutes at 37°C under room light; bound and free separated at 4°C on Sepharose 2B-CL; scintillation counting; nonspecific binding subtracted). Details: one partner purified.
T1 construct: source: purified from cow eyes; unphosphorylated; rhodopsin-containing membranes
T1 sequence (P02699 whole entry): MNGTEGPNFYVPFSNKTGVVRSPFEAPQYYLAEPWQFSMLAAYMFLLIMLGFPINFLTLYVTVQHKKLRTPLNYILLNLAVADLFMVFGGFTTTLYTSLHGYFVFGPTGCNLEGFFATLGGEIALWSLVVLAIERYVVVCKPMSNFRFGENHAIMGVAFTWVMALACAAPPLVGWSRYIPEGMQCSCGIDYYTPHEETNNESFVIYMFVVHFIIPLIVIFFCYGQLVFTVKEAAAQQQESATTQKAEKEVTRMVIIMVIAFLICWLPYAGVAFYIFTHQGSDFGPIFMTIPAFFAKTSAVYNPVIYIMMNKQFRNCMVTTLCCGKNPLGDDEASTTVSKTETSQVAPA

| Binder | fold increase of Rh* binding against WT |
| --- | --- |
| human arrestin-1 C147F mutant (natural protein, UniProt P10523 1-405, looked up, labeled with 14C-Leu and 3H-Leu, human arrestin-1 with the disease-causing C147F mutation (dominant retinitis pigmentosa in humans), transcription construct in pGEM2; The mutation occurs in human patients; here it was introduced into the transcription construct by PCR; also called CF; source: in vitro translated (rabbit reticulocyte lysate), radiolabelled) MAASGKTSKSEPNHVIFKKISRDKSVTIYLGNRDYIDHVSQVQPVDGVVLVDPDLVKGKKVYVTLTCAFRYGQEDIDVIGLTFRRDLYFSRVQVYPPVGAASTPTKLQESLLKKLGSNTYPFLLTFPDYLPCSVMLQPAPQDSGKSFGVDFEVKAFATDSTDAEEDKIPKKSSVRLLIRKVQHAPLEMGPQPRAEAAWQFFMSDKPLHLAVSLNKEIYFHGEPIPVTVTVTNNTEKTVKKIKAFVEQVANVVLYSSDYYVKPVAMEEAQEKVPPNSTLTKTLTLLPLLANNRERRGIALDGKIKHEDTNLASSTIIKEGIDRTVLGILVSYQIKVKLTVSGFLGELTSSEVATEVPFRLMHPQPEDPAKESYQDANLVFEEFARHNLKDAGEAEEGKRDKNDVDE | > 2 fold |
| human arrestin-1 C147L mutant (natural protein, UniProt P10523 1-405, looked up, labeled with 14C-Leu and 3H-Leu, source: in vitro translated (rabbit reticulocyte lysate), radiolabelled) MAASGKTSKSEPNHVIFKKISRDKSVTIYLGNRDYIDHVSQVQPVDGVVLVDPDLVKGKKVYVTLTCAFRYGQEDIDVIGLTFRRDLYFSRVQVYPPVGAASTPTKLQESLLKKLGSNTYPFLLTFPDYLPCSVMLQPAPQDSGKSLGVDFEVKAFATDSTDAEEDKIPKKSSVRLLIRKVQHAPLEMGPQPRAEAAWQFFMSDKPLHLAVSLNKEIYFHGEPIPVTVTVTNNTEKTVKKIKAFVEQVANVVLYSSDYYVKPVAMEEAQEKVPPNSTLTKTLTLLPLLANNRERRGIALDGKIKHEDTNLASSTIIKEGIDRTVLGILVSYQIKVKLTVSGFLGELTSSEVATEVPFRLMHPQPEDPAKESYQDANLVFEEFARHNLKDAGEAEEGKRDKNDVDE | > 2 fold |
| human arrestin-1 C147I mutant (natural protein, UniProt P10523 1-405, looked up, labeled with 14C-Leu and 3H-Leu, source: in vitro translated (rabbit reticulocyte lysate), radiolabelled) MAASGKTSKSEPNHVIFKKISRDKSVTIYLGNRDYIDHVSQVQPVDGVVLVDPDLVKGKKVYVTLTCAFRYGQEDIDVIGLTFRRDLYFSRVQVYPPVGAASTPTKLQESLLKKLGSNTYPFLLTFPDYLPCSVMLQPAPQDSGKSIGVDFEVKAFATDSTDAEEDKIPKKSSVRLLIRKVQHAPLEMGPQPRAEAAWQFFMSDKPLHLAVSLNKEIYFHGEPIPVTVTVTNNTEKTVKKIKAFVEQVANVVLYSSDYYVKPVAMEEAQEKVPPNSTLTKTLTLLPLLANNRERRGIALDGKIKHEDTNLASSTIIKEGIDRTVLGILVSYQIKVKLTVSGFLGELTSSEVATEVPFRLMHPQPEDPAKESYQDANLVFEEFARHNLKDAGEAEEGKRDKNDVDE | > 2 fold |
